Reference: patent US20210107981A1 (SUTRO BIOPHARMA, published 2021)

Tests used:
[1] = target: T1, human PD-1 expressed on the cell surface (CHO-PD1 cells) (human, UniProt Q15116 25-288); test: cell-based FACS competition on CHO-PD1 cells; competitor rhPDL2-Fc
T1 construct: Also used here as the target for native PD-1 on human PBMC / T cells in the functional (IFN-g) assays; also called CHO cell line overexpressing human PD-1; Cell-Surface Human PD-1 antigen
Experimental: (§1) CHO-PD1 cells were cultured in RPMI with 10% FCS Pen/Strep and Gln and split every 3-4 days at 10⁵ cells/ml. Cells were washed 2× with FACS buffer (PBS w/2% FCS), […] at a final concentration of 1×10⁶ cells/ml and seeded at […] per well on 96 well polypropylene plates. Plates were spun at 1500 rpm for 5 minutes and cell pellets were suspended in 50 μL FACS buffer containing 8 point 1:3 dilutions (2× concentrated) of anti-PD-1 antibody variants, starting from high concentration of −200 nM. […] Cell were then incubated on ice for 1 hr, washed with FACS buffer and incubated for 1 hr on ice with 50 μl FACS buffer containing 2.5 μg/ml R-phycoerythrin-conjugated anti-human IgG (Jackson ImmunoResearch). Cells were then washed 2× with FACS buffer and fixed for 10 minutes in 200 μl PBS with 2% PFA prior to acquisition. Samples were acquired using a Becton Dickinson LSRII FACS.

[2] = target: T2, Human PD-1 (ACROBiosystems, Inc., Catalog No. PD1-H5221) (human, UniProt Q15116 25-167); test: SPR (Biacore)
T2 construct: Bought recombinant protein; also called huPD1-His; PD-1-his; not shown: His tag of the bought protein (huPD1-His)
T2 sequence (Q15116 25-167 limits assumed): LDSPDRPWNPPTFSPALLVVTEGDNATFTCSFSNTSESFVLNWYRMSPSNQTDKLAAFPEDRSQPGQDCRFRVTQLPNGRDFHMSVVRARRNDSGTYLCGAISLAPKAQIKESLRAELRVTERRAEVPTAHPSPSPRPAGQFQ

[3] = target: T3, cynomolgus PD-1 (ACROBiosystems, Inc., Catalog No. PD1-H5254) (cynomolgus, UniProt B0LAJ3 25-167); test: SPR (Biacore)
T3 construct: also called cyno PD-1
T3 sequence (B0LAJ3 entry or part of it limits assumed, form in doubt): as the sequence (Q15116 25-167 limits assumed) above, with D2E, P10A, V19L, T35A, Q75R counted along it

[4] = target: T1, human PD-1 expressed on the cell …; test: FACS cell binding, CHO cell line overexpressing human PD-1
Experimental: Antibodies with expression levels >250 nM and mouse IgGs from hybridomas were tested in a fluorescence-activated cell sorting (FACS) cell-binding assay. Chinese Hamster Ovary (or CHO) Cells stably expressing the human target molecule PD-1 on the cell surface (CHO-PD1) were used to screen for binding. Parental CHO cells were used as a negative control to determine background-binding levels. Parental CHO cells and CHO-PD1 cells were cultured in RPMI w/10% FCS penicillin/streptomycin (Pen/Strep) and glutamine (or Gln) and split every 3-4 days at 10⁵ cells/mL.
A mix of parental CHO cells and CHO-PD1 cells was prepared as follows: Parental CHO cells were washed 2× in PBS then incubated in PBS containing 1 μM CellTrace™ Oregon Green488® (Life Technologies) at 37° C. for 30 minutes. Cells were then washed 2× with RPMI w/10% fetal calf serum (FCS), washed 2× with FACS buffer (PBS w/2% FCS), suspended thoroughly in ice-cold FACS buffer at a final concentration of 2×10⁶ cells/mL and kept on ice. CHO-PD1 cells were similarly washed with FACS buffer and kept on ice at 2×10⁶ cells/mL. Parental CHO cells and CHO-PD1 cells were then mixed to obtain a 1:1 cell suspension and seeded at 100 μL per well on 96 well polypropylene plates. Plates were spun at 1500 rpm for 5 minutes and cell pellets were suspended in 50 μL FACS buffer containing 6-12 point dilutions of anti-PD-1 variants starting from concentrations of −100-200 nM antibody, dispensed using BioMek FX (Beckman Coulter). Cells were then incubated on ice for 1 hr, washed with FACS buffer and incubated for 1 hr on ice with 50 μL FACS buffer containing 2.5 μg/ml R-phycoerythrin-conjugated goat anti-Human IgG (Jackson ImmunoResearch) or AF647-conjugated goat anti-mouse IgG (Life Technologies) dispensed using BioMek FX (Beckman Coulter). Cells were then washed 2× with FACS buffer and fixed for 10 minutes in 200 μL PBS with 2% paraformaldehyde (PFA) prior to fluorescence detection. Samples were acquired using a Becton Dickinson LSRII FACS. Mean Fluorescence Intensity of PD-1 antibody binding was analyzed using FlowJo® software (Tree Star, Inc.).

[5] = target: T2, Human PD-1 (ACROBiosystems, Inc., …); test: competition ELISA on coated PD-1; competitor PD-L1-Fc (ACROBiosystems)
Experimental: PD-1 (ACROBiosystems, Inc.) was adsorbed on 384-well white Maxisorp® plates (Nunc) at 2 μg/mL in sodium bicarbonate buffer (pH 8.9) and incubated at 30° C. for 1 hour or overnight at 4° C. The plate was washed 3 times with PBS pH 7.4 with 0.05% Tween20 and blocked with 2% bovine serum albumin (BSA) in PBS pH 7.4+0.1% Tween20 for 1 hour at 30° C.
After a 1 hour incubation at 30° C., the plate was washed and incubated with HRP-conjugated anti-mouse Fc (Jackson Laboratories), followed by detection with SuperSignal™ Pico Chemiluminescent Substrate (Thermo Pierce). Luminescence was detected on a SpectraMax® M5 plate reader (Molecular Devices).

[6] = target: T1, human PD-1 expressed on the cell …; test: cell-based FACS competition on CHO-PD1 cells; competitor rhPDL1-Fc
Experimental: as §1

[7] = target: T2, Human PD-1 (ACROBiosystems, Inc., …); test: ELISA, binding of human PD-1 (coated)

T1 sequence (Q15116 25-288 limits assumed): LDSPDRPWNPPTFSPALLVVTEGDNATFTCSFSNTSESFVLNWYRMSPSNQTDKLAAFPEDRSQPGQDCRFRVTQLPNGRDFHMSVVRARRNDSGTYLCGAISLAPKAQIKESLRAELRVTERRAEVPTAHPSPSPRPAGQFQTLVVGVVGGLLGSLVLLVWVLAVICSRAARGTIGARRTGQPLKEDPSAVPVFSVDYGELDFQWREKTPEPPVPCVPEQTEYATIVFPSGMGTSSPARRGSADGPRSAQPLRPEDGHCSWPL

IC50 [1] [nM]	Kd [2] [nM]	Kd [3] [nM]	Kd [4] [nM]	IC50 [5] [nM]	IC50 [6] [nM]	EC50 [7] [nM]	Binder
0.01	0.913	0.561	1.39	1.43	1.99	0.47	4B10 murine hybridoma IgG (antibody, V domains shown, Mouse IgG from hybridoma; also called m4B10) VH: EVKLVESGGGLVKPGGSLKLSCAASGFTFSTYGMSWVRQTPEKRLQWVATISGGGSNTYYSDSVKGRFTISRDNAKNNLYLQMSSLRSEDTALYYCARQRDSAWFASWGQGTLVTVSA VL: not shown
0.58	9.9	2.54	2.9	0.89	5.86	0.33	1E9 murine hybridoma IgG (antibody, V domains shown, Mouse IgG from hybridoma; also called m1E9) VH: EVKLVESGGGLVSPGGSLKLSCAASGFTFSTFGMSWVRQTPEKRLEWVATISGGGSDTYYPDSVQGRFIISRYNAKNNLYLQMNSLRPEDTALYYCARQGYDVYSWFAYWGQGTLVTVSA VL: not shown
0.18	0.252	0.195	1.34	1.32	2.53	0.59	10B4 murine hybridoma IgG (antibody, V domains shown, Mouse IgG from hybridoma; also called m10B4) VH: QVQLQQSGAELMKPGASVKMSCKTTGYIFSSYWIGWVKQRPGHGLEWIGKIFPGSGSADYNENFKGKATFTVDTSSNTAYMQLSSLTSEDSAVYYCARGYGNYLYFDVWGAGTTVTVSS VL: NIVMTQTPKFLLVSAGDRITITCKASQSVSDDVAWYQQKPGQSPKLLISYAFKRYIGVPDRFTGSGYGTDFTFTISTVQAEDLAVYFCQQNYNSPYTFGGGTKLELKR
0.56	10.4	2.56	3.2	9.47	5.96	1.71	1B10 murine hybridoma IgG (antibody, V domains shown, Mouse IgG from hybridoma; also called m1B10) VH: DVQLQESGPGLVKPSQSLSLTCTVTGHSITSDYAWNWIRQFPGNKLEWMGYISYSGRTSYNPSLTSRISITRDTSKNQFFLQLNSVTTEDTATYYCARGYALDYWGQGTSVTVSS VL: QIVLSQSPAILSASPGEKVTMTCRTSSSVNYMHWFQQKPGSSPKPWIYATSKLASGVPARFSGSGSGTSYSLTISRVEAEDAATYFCQQWISDPWTFGGGTKLEIK
